Results from patent publication US20220243196.

Columns and labels:
[1] = tested on: Hantavirus (serum containing virus; nuclear protein) (Hantavirus); experiment: ELONA
[2] = tested on: Influenza A virus (serum containing virus) (Influenza A virus); experiment: ELONA

ATCCAGAGTGACGCAGCACACATCGGAGAACAGGCGCACTGTCGGAGGAACCGCAACGTGGACACGGTGGCTTAGT [biotin-aptamer 3]
binding signal (a.u. absorbance) [1]: 0.1
binding signal (a.u. absorbance) [2]: 0.1
